Laboratory results reported in patent publication US20070100561A1, “Crystals of DPP-IV” (priority 2002, published 2007).

How the values were obtained:
DPP-IV = target: T1, DPP-IV (Homo sapiens, UniProt P27487); test: Biacore surface plasmon resonance binding to immobilized DPP-IV; details: ADA from bovine
T1 construct: The ectodomain of DPP-IV, residues 31-766 (sDPP-IV), was amplified by PCR using a cDNA; made in house; host or cells: Pichia pastoris strain GS115 (pPICZα-A vector)
Experimental: DPP-IV was immobilized on a CM5 surface plasmon resonance sensor (Biacore) using standard amide coupling chemistry. The organic adlayer on this sensor type consists of carboxymethylated dextran (MW≈100 kDA). After activation of the carboxylic acid groups using carbodiimide/N-hydroxysuccinimide solutions, the surface was contacted with a DPP-IV solution (80 μl) containing≈100 μg/ml protein in acetate buffer (10 mM, pH 4.5). […] The surfaces of two flow cells were modified with protein. […] Hepes buffer (0.01 M Hepes, pH 7.4, 0.15 M NaCl, 3 mM EDTA, 0.005% polysorbate 20 (v/v)) was used as the running buffer. Diprotin-A was disolved directly in this buffer. […] The final inhibitor solution contained less than 0.1% DMSO. Binding experiments were carried out by contacting the immobilized protein surfaces with inhibitor solutions of varying concentrations at a flow rate of 10 μl/min or 30 μl/min. After each contact with inhibitor, the protein surfaces were regenerated by extensively washing with running buffer.

[1] = target: T2, sDPP-IV (soluble extracellular domain of human dipeptidyl peptidase IV) (Homo sapiens, UniProt P27487); test: DPP-IV activity assay, fluorescence of products from Ala-Pro-7-amido-4-trifluoromethylcoumarin; assay type: biochemical; details: Lineweaver-Burk plots; 50 mM Tris/HCl pH 7.8, 100 mM NaCl, 0.1 mg/ml BSA, 0.5% dimethylformamide; 25° C.
T2 construct: The ectodomain of DPP-IV, residues 31-766 (sDPP-IV), was amplified by PCR using a cDNA; made in house; host or cells: Pichia pastoris strain GS115 (pPICZα-A vector)
Experimental: A 20 mM stock solution in 10% DMF is stored at −20° C. until use. […] DPP-IV activity assays were performed in 96 well plates in a total assay volume of 100 μl. The assay buffer consists of S-Buffer containing 0.1 mg/ml BSA. […] Initial rate constants are calculated by best fit linear regression.

B1: ADA: adenosine deaminase, Sigma Type IV, from calf intestinal mucosa (bovine) (protein)
chain: AQTPAFNKPKVELHVHLDGAIKPETILYYGRKRGIALPADTPEELQNIIGMDKPLSLPEFLAKFDYYMPAIAGCREAVKRIAYEFVEMKAKDGVVYVEVRYSPHLLANSKVEPIPWNQAEGDLTPDEVVSLVNQGLQEGERDFGVKVRSILCCMRHQPSWSSEVVELCKKYREQTVVAIDLAGDETIEGSSLFPGHVKAYAEAVKSGVHRTVHAGEVGSANVVKEAVDTLKTERLGHGYHTLEDATLYNRLRQENMHFEVCPWSSYLTGAWKPDTEHPVVRFKNDQVNYSLNTDDPLIFKSTLDTDYQMTKNEMGFTEEEFKRLNINAAKSSFLPEDEKKELLDLLYKAYGMPSPA
DPP-IV
  koff (dissociation rate) of ADA: 8.75e-05 s⁻¹
  kon of ADA: 29800 M⁻¹ s⁻¹

B2: sDPP-IVdeglycos: enzymatically deglycosylated sDPP-IV (EndoF1-GST treated) (protein)
chain: GTDDATADSRKTYTLTDYLKNTYRLKLYSLRWISDHEYLYKQENNILVFNAEYGNSSVFLENSTFDEFGHSINDYSISPDGQFILLEYNYVKQWRHSYTASYDIYDLNKRQLITEERIPNNTQWVTWSPVGHKLAYVWNNDIYVKIEPNLPSYRITWTGKEDIIYNGITDWVYEEEVFSAYSALWWSPNGTFLAYAQFNDTEVPLIEYSFYSDESLQYPKTVRVPYPKAGAVNPTVKFFVVNTDSLSSVTNATSIQITAPASMLIGDHYLCDVTWATQERISLQWLRRIQNYSVMDICDYDESSGRWNCLVARQHIEMSTTGWVGRFRPSEPHFTLDGNSFYKIISNEEGYRHICYFQIDKKDCTFITKGTWEVIGIEALTSDYLYYISNEYKGMPGGRNLYKIQLSDYTKVTCLSCELNPERCQYYSVSFSKEAKYYQLRCSGPGLPLYTLHSSVNDKGLRVLEDNSALDKMLQNVQMPSKKLDFIILNETKFWYQMILPPHFDKSKKYPLLLDVYAGPCSQKADTVFRLNWATYLASTENIIVASFDGRGSGYQGDKIMHAINRRLGTFEVEDQIEAARQFSKMGFVDNKRIAIWGWSYGGYVTSMVLGSGSGVFKCGIAVAPVSRWEYYDSVYTERYMGLPTPEDNLDHYRNSTVMSRAENFKQVEYLLIHGTADDNVHFQQSAQISKALVDVGVDFQAMWYTDEDHGIASSTAHQHIYTHMSHFIKQCFSLP
[1]
  Km: 17.2 µM
  kcat: 43.1 s⁻¹

B3: sDPP-IVglycos: glycosylated sDPP-IV (protein)
chain: B2 chain
[1]
  Km: 15.5 µM
  kcat: 37.3 s⁻¹
